Assay results published in US20180258158A1 (Bristol-Myers Squibb, published 2018).
Where a chain is given by its changes, count along the chain named. Names and notes keep the numbering of the source. Values belong to the binder of their own block, whether it stands above or below them.

Assays:
[1] = biological target: T1, human serum albumin (HSA), full length (human, UniProt P02768 25-609); assay: direct binding ELISA, coated HSA, anti-His-HRP; design: unit not given here
T1 construct: mature; Immobilized on CM5 chip (SPR) or coated on plates (ELISA)
T1 sequence (P02768 25-609): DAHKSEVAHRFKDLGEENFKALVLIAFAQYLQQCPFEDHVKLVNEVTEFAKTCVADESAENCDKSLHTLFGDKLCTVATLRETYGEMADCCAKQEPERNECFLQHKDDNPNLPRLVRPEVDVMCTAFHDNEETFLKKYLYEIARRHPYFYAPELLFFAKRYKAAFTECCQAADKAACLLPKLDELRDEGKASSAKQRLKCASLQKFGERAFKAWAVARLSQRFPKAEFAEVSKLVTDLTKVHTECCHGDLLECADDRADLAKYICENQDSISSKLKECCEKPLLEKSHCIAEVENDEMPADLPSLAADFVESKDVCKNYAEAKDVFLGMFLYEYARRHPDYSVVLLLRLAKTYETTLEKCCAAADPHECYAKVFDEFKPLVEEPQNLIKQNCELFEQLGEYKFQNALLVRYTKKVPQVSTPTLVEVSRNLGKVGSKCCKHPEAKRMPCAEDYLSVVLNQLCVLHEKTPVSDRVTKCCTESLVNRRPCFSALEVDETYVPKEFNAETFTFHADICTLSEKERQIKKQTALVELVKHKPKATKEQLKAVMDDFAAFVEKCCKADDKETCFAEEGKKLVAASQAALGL
Procedure: (§1) Direct binding ELISA assays were conducted as follows. Full length human and murine serum albumin at 10ug/ml in PBS were coated on Nunc Maxisorp plates overnight at 4° C. Plates were blocked in casein/PBS buffer. PKE Adnectins were allowed to bind over a 4-point concentration range of 0.032-4 uM for HSA and 0.008-1 uM for MSA. Bound Adnectin was detected by anti-His antibody conjugated with HRP (horseradish peroxidase) diluted 1:1500 in casein/PBS. Plates were developed with TMB substrate and absorbance read at 450 nm. Adnectins were binned as high, medium and low affinity binders based on the observed Ymax of the concentration response curves.

[2] = biological target: T2, mouse serum albumin (MSA), full length (mouse, UniProt P07724 25-608); assay: direct binding ELISA, coated MSA, anti-His-HRP; design: unit not given here
T2 construct: mature; Immobilized on CM5 chip (SPR) or coated on plates (ELISA); also called mouse albumin; murine serum albumin
Procedure: as §1

[3] = biological target: T1, human serum albumin (HSA), full length; assay: SPR off-rate ratio to parent ADX_7016_A01, HSA, 25 C
Procedure: (§2) Measurements were conducted by SPR and ELISA. SPR was conducted as follows. Full length HSA or mouse albumin was immobilized on a Biacore T series CM5 chip at 15 ug/mL in 10 mM acetate buffer (pH 5.0) buffer using standard NHS/EDC coupling, to a surface density of approximately 1000-1100 RU. For off-rate measurements at 25° C., PKE Adnectins were applied as analytes at 500 nM in HBS-P+(0.01 M HEPES pH 7.4, 0.15 M NaCl, 0.005% v/v Surfactant P20) running buffer at a flow rate of 20ul/min for 120 s over the immobilized albumins, followed by 800 s for dissociation. […] Regeneration of the chip surface between cycles was accomplished with two 30 second pulses of 10 mM Glycine, pH 2.0. Kinetic traces of reference-subtracted sensorgrams were fit to a 1:1 binding model for affinity using the Biaevaluation software. Only the dissociation phase was fit for determination of off-rates.

[4] = biological target: T2, mouse serum albumin (MSA), full length; assay: SPR off-rate ratio to parent ADX_7016_A01, MSA, 25 C
Procedure: as §2

[5] = biological target: T1, human serum albumin (HSA), full length; assay: SPR off-rate, immobilized HSA, 500 nM Adnectin, 25 C
Procedure: as §2

[6] = biological target: T2, mouse serum albumin (MSA), full length; assay: SPR off-rate, immobilized MSA, 500 nM Adnectin, 25 C
Procedure: as §2

B2: ADX_6727_C07 (R30A/K85S) (designed binder)
chain: MGVSDVPRDLEVVAATPTSLLISWDAPAVTVRYYRITYGAEVQKYSDLGPLYIYQEFTVPGSKSTATISGLKPGVDYTITVYAVTGSGESPASSSPISINYRTEIDKPSQHHHHHH
notes: Full His6-tagged entry
HSA DB ELISA (OD450) Ymax obs [1]: 100
HSA DB ELISA (OD450) Ymin obs [1]: 44
MSA DB ELISA (OD450) Ymax obs [2]: 94
MSA DB ELISA (OD450) Ymin obs [2]: 6
HSA kd/Parent kd [3]: 8
MSA kd/Parent kd [4]: 7.8
koff [5]: 0.00218 s⁻¹
koff [6]: 0.00334 s⁻¹

B5: ADX_6727_D06 (Y44A/K85S) (designed binder)
chain: B2 chain with A40R, Y54A
notes: Full His6-tagged entry
HSA DB ELISA (OD450) Ymax obs [1]: 67
HSA DB ELISA (OD450) Ymin obs [1]: 8
MSA DB ELISA (OD450) Ymax obs [2]: 85
MSA DB ELISA (OD450) Ymin obs [2]: 1
HSA kd/Parent kd [3]: 20
MSA kd/Parent kd [4]: 14.5
koff [5]: 0.00546 s⁻¹
koff [6]: 0.00622 s⁻¹

B6: ADX_6727_C01 (K85A) (designed binder)
chain: B2 chain with A40R, S95A
notes: Full His6-tagged entry
HSA DB ELISA (OD450) Ymax obs [1]: 98
HSA DB ELISA (OD450) Ymin obs [1]: 88
MSA DB ELISA (OD450) Ymax obs [2]: 93
MSA DB ELISA (OD450) Ymin obs [2]: 90
HSA kd/Parent kd [3]: 1.1
MSA kd/Parent kd [4]: 1.2
koff [5]: 0.000297 s⁻¹
koff [6]: 0.000509 s⁻¹

B7: ADX_6727_B05 (I43S/K85T) (designed binder)
chain: B2 chain with A40R, I53S, S95T
notes: Full His6-tagged entry
HSA DB ELISA (OD450) Ymax obs [1]: 60
HSA DB ELISA (OD450) Ymin obs [1]: 4
MSA DB ELISA (OD450) Ymax obs [2]: 63
MSA DB ELISA (OD450) Ymin obs [2]: 2
HSA kd/Parent kd [3]: 28
MSA kd/Parent kd [4]: 18.2
koff [5]: 0.00749 s⁻¹
koff [6]: 0.00781 s⁻¹

B8: ADX_6727_C03 (Y35S) (designed binder)
chain: B2 chain with A40R, Y45S, S95K
notes: Full His6-tagged entry
HSA DB ELISA (OD450) Ymax obs [1]: 99
HSA DB ELISA (OD450) Ymin obs [1]: 31
MSA DB ELISA (OD450) Ymax obs [2]: 95
MSA DB ELISA (OD450) Ymin obs [2]: 23
HSA kd/Parent kd [3]: 4
MSA kd/Parent kd [4]: 2.8
koff [5]: 0.00107 s⁻¹
koff [6]: 0.00121 s⁻¹

B9: ADX_6727_B11 (Q33D/K85S) (designed binder)
chain: B2 chain with A40R, Q43D
notes: Full His6-tagged entry
HSA DB ELISA (OD450) Ymax obs [1]: 12
HSA DB ELISA (OD450) Ymin obs [1]: 1
MSA DB ELISA (OD450) Ymax obs [2]: 11
MSA DB ELISA (OD450) Ymin obs [2]: 1
HSA kd/Parent kd [3]: 56
koff [5]: 0.0151 s⁻¹

Other lines, results leading:

HSA DB ELISA (OD450) Ymax obs [1]: 97
HSA DB ELISA (OD450) Ymin obs [1]: 94
MSA DB ELISA (OD450) Ymax obs [2]: 91
MSA DB ELISA (OD450) Ymin obs [2]: 88
HSA kd/Parent kd [3]: 1.2
MSA kd/Parent kd [4]: 1.2
koff [5]: 0.000321 s⁻¹
koff [6]: 0.000501 s⁻¹
B1: ADX_6727_B01 (K85S) (designed binder)
chain: B2 chain with A40R
notes: Full His6-tagged entry

HSA DB ELISA (OD450) Ymax obs [1]: 19
HSA DB ELISA (OD450) Ymin obs [1]: 2
MSA DB ELISA (OD450) Ymax obs [2]: 42
MSA DB ELISA (OD450) Ymin obs [2]: 1
HSA kd/Parent kd [3]: 50
MSA kd/Parent kd [4]: 142
koff [5]: 0.0134 s⁻¹
koff [6]: 0.0608 s⁻¹
B3: ADX_6727_D10 (Q33D/K85T) (designed binder)
chain: B2 chain with A40R, Q43D, S95T
notes: Full His6-tagged entry

HSA DB ELISA (OD450) Ymax obs [1]: 99
HSA DB ELISA (OD450) Ymin obs [1]: 20
MSA DB ELISA (OD450) Ymax obs [2]: 93
MSA DB ELISA (OD450) Ymin obs [2]: 17
HSA kd/Parent kd [3]: 5
MSA kd/Parent kd [4]: 2.8
koff [5]: 0.00135 s⁻¹
koff [6]: 0.00118 s⁻¹
B4: ADX_6727_D02 (R30N) (designed binder)
chain: B2 chain with A40N, S95K
notes: Full His6-tagged entry

HSA DB ELISA (OD450) Ymax obs [1]: 97
HSA DB ELISA (OD450) Ymin obs [1]: 88
MSA DB ELISA (OD450) Ymax obs [2]: 91
MSA DB ELISA (OD450) Ymin obs [2]: 88
HSA kd/Parent kd [3]: 1
MSA kd/Parent kd [4]: 1
koff [5]: 0.000259 s⁻¹
koff [6]: 0.000433 s⁻¹
B10: ADX_6727_D01 (K85T) (designed binder)
chain: B2 chain with A40R, S95T
notes: Full His6-tagged entry
